Measurements as given in patent US20120141538A1 (UNIVERSITE PIERRE ET MARIE CURIE PARIS VI, published 2012).

T1: human CX3CR1 receptor (human, UniProt P49238 1-355)
T1 construct: Expressed on stably transfected HEK or CHO cells, or endogenous on human PBMC (CD8+ T cells, NK cells); also called HEK-CX3CR1 cells; CHO-CX3CR1 cells
T1 sequence: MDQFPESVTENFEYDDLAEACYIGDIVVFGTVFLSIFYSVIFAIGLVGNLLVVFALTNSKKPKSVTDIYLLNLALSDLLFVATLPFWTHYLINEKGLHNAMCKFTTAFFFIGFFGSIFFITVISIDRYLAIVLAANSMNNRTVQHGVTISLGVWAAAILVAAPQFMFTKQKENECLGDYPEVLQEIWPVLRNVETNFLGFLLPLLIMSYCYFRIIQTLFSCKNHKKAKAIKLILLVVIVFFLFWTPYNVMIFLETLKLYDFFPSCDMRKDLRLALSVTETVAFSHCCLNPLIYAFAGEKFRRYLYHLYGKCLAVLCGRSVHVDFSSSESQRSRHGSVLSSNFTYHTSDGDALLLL

B1: phage-displayed CX3CL1 mutant with N-terminal sequence AAQGMS (other, not shown: large carriers)
chain: AAQGMSKCNITCSKMTSKIPVALLIHYQQNQASCGKRAIILETRQHRLFCADPKEQWVKDAMQHLDRQAAALTRNG
notes: Selected phage clone (agonist selection); not tested singly
B2: phage-displayed CX3CL1 mutant with N-terminal sequence QPGGVS (other, not shown: large carriers)
chain: QPGGVSKCNITCSKMTSKIPVALLIHYQQNQASCGKRAIILETRQHRLFCADPKEQWVKDAMQHLDRQAAALTRNG
notes: as for B1
B3: phage-displayed CX3CL1 mutant with N-terminal sequence QPVALA (other, not shown: large carriers)
chain: QPVALAKCNITCSKMTSKIPVALLIHYQQNQASCGKRAIILETRQHRLFCADPKEQWVKDAMQHLDRQAAALTRNG
notes: as for B1
B4: phage-displayed CX3CL1 mutant with N-terminal sequence QPVGLS (other, not shown: large carriers)
chain: QPVGLSKCNITCSKMTSKIPVALLIHYQQNQASCGKRAIILETRQHRLFCADPKEQWVKDAMQHLDRQAAALTRNG
notes: as for B1
B5: phage-displayed CX3CL1 mutant with N-terminal sequence QFPGVS (other, not shown: large carriers)
chain: QFPGVSKCNITCSKMTSKIPVALLIHYQQNQASCGKRAIILETRQHRLFCADPKEQWVKDAMQHLDRQAAALTRNG
notes: as for B1
B6: phage-displayed CX3CL1 mutant with N-terminal sequence QLQGLA (other, not shown: large carriers)
chain: QLQGLAKCNITCSKMTSKIPVALLIHYQQNQASCGKRAIILETRQHRLFCADPKEQWVKDAMQHLDRQAAALTRNG
notes: as for B1
B7: phage-displayed CX3CL1 mutant with N-terminal sequence QPYGMS (other, not shown: large carriers)
chain: QPYGMSKCNITCSKMTSKIPVALLIHYQQNQASCGKRAIILETRQHRLFCADPKEQWVKDAMQHLDRQAAALTRNG
notes: as for B1
B8: phage-displayed CX3CL1 mutant with N-terminal sequence QHLGLS (other, not shown: large carriers)
chain: QHLGLSKCNITCSKMTSKIPVALLIHYQQNQASCGKRAIILETRQHRLFCADPKEQWVKDAMQHLDRQAAALTRNG
notes: as for B1
B9: phage-displayed CX3CL1 mutant with N-terminal sequence QPRALP (other, not shown: large carriers)
chain: QPRALPKCNITCSKMTSKIPVALLIHYQQNQASCGKRAIILETRQHRLFCADPKEQWVKDAMQHLDRQAAALTRNG
notes: as for B1
B10: phage-displayed CX3CL1 mutant with N-terminal sequence QLLGVS (other, not shown: large carriers)
chain: QLLGVSKCNITCSKMTSKIPVALLIHYQQNQASCGKRAIILETRQHRLFCADPKEQWVKDAMQHLDRQAAALTRNG
notes: as for B1
B11: phage-displayed CX3CL1 mutant with N-terminal sequence QVQGVT (other, not shown: large carriers)
chain: QVQGVTKCNITCSKMTSKIPVALLIHYQQNQASCGKRAIILETRQHRLFCADPKEQWVKDAMQHLDRQAAALTRNG
notes: as for B1
B12: phage-displayed CX3CL1 mutant with N-terminal sequence QPYGVS (other, not shown: large carriers)
chain: QPYGVSKCNITCSKMTSKIPVALLIHYQQNQASCGKRAIILETRQHRLFCADPKEQWVKDAMQHLDRQAAALTRNG
notes: as for B1
B13: phage-displayed CX3CL1 mutant with N-terminal sequence GPQAMS (other, not shown: large carriers)
chain: GPQAMSKCNITCSKMTSKIPVALLIHYQQNQASCGKRAIILETRQHRLFCADPKEQWVKDAMQHLDRQAAALTRNG
notes: as for B1
B14: phage-displayed CX3CL1 mutant with N-terminal sequence QPSALT (other, not shown: large carriers)
chain: QPSALTKCNITCSKMTSKIPVALLIHYQQNQASCGKRAIILETRQHRLFCADPKEQWVKDAMQHLDRQAAALTRNG
notes: as for B1
B15: phage-displayed CX3CL1 mutant with N-terminal sequence QPVAVS (other, not shown: large carriers)
chain: QPVAVSKCNITCSKMTSKIPVALLIHYQQNQASCGKRAIILETRQHRLFCADPKEQWVKDAMQHLDRQAAALTRNG
notes: as for B1
B16: phage-displayed CX3CL1 mutant with N-terminal sequence NPQALS (other, not shown: large carriers)
chain: NPQALSKCNITCSKMTSKIPVALLIHYQQNQASCGKRAIILETRQHRLFCADPKEQWVKDAMQHLDRQAAALTRNG
notes: as for B1
B17: phage-displayed CX3CL1 mutant with N-terminal sequence QSPGMS (other, not shown: large carriers)
chain: QSPGMSKCNITCSKMTSKIPVALLIHYQQNQASCGKRAIILETRQHRLFCADPKEQWVKDAMQHLDRQAAALTRNG
notes: as for B1
B18: phage-displayed CX3CL1 mutant with N-terminal sequence QPHGVA (other, not shown: large carriers)
chain: QPHGVAKCNITCSKMTSKIPVALLIHYQQNQASCGKRAIILETRQHRLFCADPKEQWVKDAMQHLDRQAAALTRNG
notes: as for B1
B19: phage-displayed CX3CL1 mutant with N-terminal sequence QSLGVS (other, not shown: large carriers)
chain: QSLGVSKCNITCSKMTSKIPVALLIHYQQNQASCGKRAIILETRQHRLFCADPKEQWVKDAMQHLDRQAAALTRNG
notes: as for B1
B20: phage-displayed CX3CL1 mutant with N-terminal sequence QPMGVA (other, not shown: large carriers)
chain: QPMGVAKCNITCSKMTSKIPVALLIHYQQNQASCGKRAIILETRQHRLFCADPKEQWVKDAMQHLDRQAAALTRNG
notes: as for B1
B21: phage-displayed CX3CL1 mutant with N-terminal sequence QPVAVA (other, not shown: large carriers)
chain: QPVAVAKCNITCSKMTSKIPVALLIHYQQNQASCGKRAIILETRQHRLFCADPKEQWVKDAMQHLDRQAAALTRNG
notes: as for B1
B22: phage-displayed CX3CL1 mutant with N-terminal sequence QPQGLA (other, not shown: large carriers)
chain: QPQGLAKCNITCSKMTSKIPVALLIHYQQNQASCGKRAIILETRQHRLFCADPKEQWVKDAMQHLDRQAAALTRNG
notes: as for B1
B23: phage-displayed CX3CL1 mutant with N-terminal sequence QPSGMS (other, not shown: large carriers)
chain: QPSGMSKCNITCSKMTSKIPVALLIHYQQNQASCGKRAIILETRQHRLFCADPKEQWVKDAMQHLDRQAAALTRNG
notes: as for B1
B24: phage-displayed CX3CL1 mutant with N-terminal sequence QPSALS (other, not shown: large carriers)
chain: QPSALSKCNITCSKMTSKIPVALLIHYQQNQASCGKRAIILETRQHRLFCADPKEQWVKDAMQHLDRQAAALTRNG
notes: as for B1
B25: phage-displayed CX3CL1 mutant with N-terminal sequence QPQAVS (other, not shown: large carriers)
chain: QPQAVSKCNITCSKMTSKIPVALLIHYQQNQASCGKRAIILETRQHRLFCADPKEQWVKDAMQHLDRQAAALTRNG
notes: as for B1
B26: phage-displayed CX3CL1 mutant with N-terminal sequence QPGAVS (other, not shown: large carriers)
chain: QPGAVSKCNITCSKMTSKIPVALLIHYQQNQASCGKRAIILETRQHRLFCADPKEQWVKDAMQHLDRQAAALTRNG
notes: as for B1

These binders were tested against T1, human CX3CR1 receptor (assay: phage display selection on HEK-CX3CR1 cells, recovery of endocytosed phages).
B1: binds. B2: binds. B3: binds. B4: binds. B5: binds. B6: binds. B7: binds. B8: binds. B9: binds. B10: binds. B11: binds. B12: binds. B13: binds. B14: binds. B15: binds. B16: binds. B17: binds. B18: binds. B19: binds. B20: binds. B21: binds. B22: binds. B23: binds. B24: binds. B25: binds. B26: binds.
